Experimental data reported in patent US20140287419A1, “Compositions Having Dicamba Decarboxylase Activity and Methods of Use” (priority 2013, published 2014).

Experiment: 14C assay with IPTG-induced recombinant E. coli cells (14CO2 capture from [14C]-carboxyl-labeled dicamba)
Details: for Dicamba Decarboxylase Activity: IPTG-induced recombinant E. coli cells, [14C]-carboxyl-labeled dicamba, 14CO2 capture; for Enzymatic Detection level: dicamba decarboxylation activity of the protein of the given SEQ ID NO

Molecule | Dicamba Decarboxylase Activity | Enzymatic Detection level
73 (protein, listed as Sphaerobacter thermophilus) MARIDAHAHAQPPEYLDALLASGRYESVRDAEGRIVVRERGSRFLTITPQMHHPEQRVAEMDEAGIDMQILSVTTPQVYFLQGQAAVDLARRCNDYLADIVRSYPTRFRALASVPLTADPDAAVREFVRCLDDLGMVGAIIGSNIDGRPIDDPAFDAFYAEADRRATTLFIHPMVPAGIEVMNPYALAPLVGFMFDTTLAVSRLIFSGFFERYPRVKVLVGHLGAAVPYLAGRLDIGWRSYSDCQGIPHPPTEYIRRLYLDTVSFHAPALRCALETVGPDRIVFGSDYPHVIGDVGGAIASIQQALPATTHDGVLGHTAAELFGVSA | Low | Low
74 (protein, listed as Ramlibacter tataouinensis) MATVIDVHTHMFTTKWLELLKKEGGQYNIQTRPDGQQEIFRGNTPVVIPQKGHFDWKLRIQHMDQAGIDVSVVSLTCPNVYWGGEDVSVRAAREANDNVAQAQTAYPDRIRWFASLPWEYMATVIDVHTHMFTTKWLELLKKEGGQYNIQTRPDGQQEIFRGNTPVVIPQKGHFDWKLRIQHMDQAGIDVSVVSLTCPNVYWGGEDVSVRAAREANDNVAQAQTAYPDRIRWFASLPWEYPQRAVEELERSCAQGAAGVMVLANVAGRSLTDPLFAPVWAEIDRRALPVLVHPTDPPGVDLMDMTKFDLSWSVGFMFDTTLAITRMIFEGFFDRYPNLRIIASHGGGTLPYLVGRFEKGDEVELASRRQMKRKPTDYLRHIHYDCITYNLGALQYLISVVGAGQVMFGTDWPHWVHDTRGAFANTAQLPQEQTRAVRGANAQRLFKL | Low | Low
72 (protein, Cupriavidus necator) MADCPCCVSPKRRRLLGSVSAIAAGMMAGLPALAAQPSTAAAGTGKPLSIDIHAHYYSESFLGLLGGEGKQFGGHFFRNDDSFTFQTPAGGLGPLPMKFIDVEQRVRDMDNSGVDVQAISLSVPMVYWADRTLNAKLARAWNTAASDVHRKHPTRFVVLATLPMLNANDAIDELEFAAGLPGVRGIYMGTNINNRDLDDPLFSPIFKRIEQLNLPIFLHPQQTVGGARLADFYLSNLLGNPFDTAIAASHLILGGVLDKYPALHFSLPHAGGALPILVGRIDAGWSMRSETKRVAQKPSSYLRRFSYDTISHSGPTLDFLIRNIGADRLVLGSDYCFDMGYEQPVRFLDRLALPDDQKRMVVGGNAARLLNL | Low | Low
6 (protein, Treponema brennaborense) MAEILSPEESIYYSKLSNDILAEGIKKNPTRFRGFAALPTPDPIQAAMELERCIKLGGFVGAIINGHINGHYLDEIQFDPILEAADALDVPLYIHPAVPPKAIIDTYYKMNDTYAQTVMVSGGWGWHIETGVHVLRLISSGVFDRHPNLKIVIGHLGEGLPFFMHRLNNAIGGNLKKSYSTYLKENIYYTISGFNDPDLFQFVLKKVGENNIMFSSDYPFNFPKREVELFNELNISEEVREKISFKNAERILKI | No | No
75 (protein, listed as Ectocarpus siliculosus) MAKIDSYTHFACPAFMDHLEAESGHPMVFRGLFSSIPELSDIDLRIRYMDEHGIDVHCLVPLPWLECEPGLHADEGKALEACRIANDEMARVVARFPDRLIGVALIPTTTEQAMIQETTRAVKELGMAGVALFVGPTAKPPDMACFEGLYRTCEELGAVVWMHPCRPQSYADYDSYKGEGSKHQIWNTFGWIYDTSVAMVHIALAGVFRRYPGLKVVTHHHGAMVPFFTARFDTQRRNFQEVEGDDLLEDLRLFYCDTATFGESAANIQQAIDFFGKSQVLFGTDTPMDMGTRGMFTRTTIASVEALGAAPEDKESFYAGNVLDMLGERFAGISGARGAVAARPKGDSTRIAASL | Low | Low
78 (protein, listed as Marinobacter adhaerens) MALIDLHAHAPHPDYYDQHPHWGPAFELQSDGDIKLRVGHWVLSLGAPERKQALREAHARGETLDVQEYMAKWRDPEHRLASMDAAGQNAQVLSVPSHCYMYWAEPEFGVPFAKKVNDSLAEYCSAAPDRLMFWAHAPLNVPKEAAKEIRRACTELGAKGLVAGGSNFGGLEFDSPEMDPVWEALCDLDLPMFVHGYNQSVTWGEEANTDRYETTAIVGMNYDESKCFWYMINGGVFDRFPNLKVYITHGGGFVPYQLGRMAQTNPNLDTYHNKKPFLEYLKNFYFDVELHEVPMRQAMVEVIGADRVLYGSNFGGSDAVRHDLTDDLKLSQEDLDKIRWKNACDLLHLDPNKLGKVRG | Low | Low
76 (protein, listed as Polymorphum gilvum) MAKKIDIFNHIWPEPFFKALIAHIGEMTDITMRSGAVPMMTNLDRRFEVMDMFGPDYMQVLSLASPPLEKLADPAKALELSRIGSDSLAELCQRYPERFPAFIGTAPLSNPAAVVGECRRAIEDLGAAGMQIFTNVAGKPLDLAEFEPFFEYMASAGKPVWLHPARGEAFADYQTEKRSEYEIWWTFGWPYETSAAMARLVFSRMFDKYPGLKVITHHAGGMVPFFEGRVGPGWDQMGARTTDRDLAAVRKALKRPHLDYFKEFYADTASFGSRKAIEHAIEFFGEDRVLFASDAPFDPEGGPMYIRETMRCIDSLDLTDAQRRKIYHGNATALLGLSL | No | No
79 (protein, Pyrenophora teres) MATTTTPSTLIATLESHLTPTLAFTSPTTSPTQPALHLIPPTTLTKLRNLGPGRVKDMHMLGHSRQIISHIPVAAPPQICSRFNDAIHAATMTNTAKFSVLAVLPTDGMEAAKELARCVSKYRFVGGVIGLNRGLRINGEGWEELWGLAERLRIPIMFREMWPLAFEIVDYQHHLPYSALGPILTQLHTSHTSSPLPLVRLYLSSVFDHYPSLRLVLAHPGSLPSLVPRIESLINSIPATDKPKRSFLDVWQHNIYLTTADAQDMSSLRALLEQIPVDRVLYASNYPFEERGNELMNELRESEFLTNIEWERVAWVNAETLFNLKEAGTKEARQLTTIPSSRS | High | High
80 (protein, listed as Cordyceps militaris) MAAASTPVVVDIHTHMYPPSYIAMLEKRQTIPLVRTFPQADEPRLILLSSELAALDAALADPAAKLPGRPLSTHFASLAQKMHFMDTNGIRVSVISLANPWFDFLAPDEAPGIADAVNAEFSDMCAQHVGRLFFFAALPLSAPVDAVKASIERVKNLKYCRGIILGTSGLGKGLDDPHLLPVFEAVADAKLLVFLHPHYGLPNEVYGPRSEEYGHVLPLALGFPMETTIAVARMYMAGVFDHVRNLQMLLAHSGGTLPFLAGRIESCIVHDGHLVKTGKVPKDRRTIWTVLKEQIYLDAVIYSEVGLQAAIASSGADRLMFGTDHPFFPPIEEDVQGPWDSSRLNAQAVIKAVGEGSSDAAAVMGLNAVRVLSLKAE | Low | Low
77 (protein, Burkholderia xenovorans) MALIDLHAHAPHPGYYNQHPHWGPFFERHEDGDVKLRVGDWILTLGSPERKALVRAGKGPTVEEYQARWADPKVRLAGMDAAGQNAQVVSVPSHCYMYWAEKEFSVPFATKVNDTFAEYCSAAPDRLMFWAHAALNAPEQAALELRRACTELGAKGLVAGGANFGGLEFDSPELDPVWKVLCDLDLPMFIHGYNQSVTWGKKANDDRYETTAIVGMQYDETRCFWNLVCGGVLDRFPGLKVYITHGGGYVPYQLGRLAQCNGNLDVAHNKKPVLEYLKNNFYFDVELHEVPMRQALIDIIGADRVLYGSNFGGSDAVRHDLTEGLRLSDDDLQKIRWKNACKLLHLDPAKIGEPAKKQAVSA | No | No
